Results on 7 molecules are retold here after patent publication US20050085420A1, “Method of modulating apoptosis and compositions thereof” (priority 2003, published 2005).

One data set relates to MEFs. The data set can be described thus: G418 selection of mouse embryonic fibroblasts. The data set is classed as cell-based. Conditions: 0.3 mg/ml G418, 3 days. On the procedure: vdac1 -/- and vdac2 -/- embryonic stem (ES) cells were described previously S. Wu, M. J. Sampson, W. K. Decker, W. J. Craigen, Biochim Biophys Acta 1452, 68-78. (1999). 129/SvEv derived ES cell clones with homozygous deletion of vdac2 alleles were microinjected into blastocysts from C57BL/6 female mice. Mouse embryonic fibroblasts derived from E13.5 day chimeric embryos were treated with 0.3 mg/ml G418 (GIBCO-BRL) at second passage for 5 days to select for vdac2 -/- cells. Normally, 100% of MEFs died at 3 days in the presence of 0.3 mg/ml G418. Deficiency of VDAC2 in cells following G418 selection was confirmed by an immunoblot developed with an anti-VDAC2 Ab.

Data set [1] deals with BCL-XL (in Bax, Bak doubly deficient MEFs) (mouse, UniProt Q64373-1 1-233). The data set can be described thus: anti-HA co-immunoprecipitation in 1% CHAPS.
Chain of BCL-XL (in Bax, Bak doubly deficient MEFs) (Q64373 whole entry): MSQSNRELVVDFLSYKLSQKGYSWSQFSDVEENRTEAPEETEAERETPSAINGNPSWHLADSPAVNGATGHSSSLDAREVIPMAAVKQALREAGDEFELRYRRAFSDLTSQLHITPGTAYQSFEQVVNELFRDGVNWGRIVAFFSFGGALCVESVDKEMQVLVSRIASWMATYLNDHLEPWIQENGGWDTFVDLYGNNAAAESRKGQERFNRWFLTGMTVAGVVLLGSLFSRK
For the next data set, the target named is T1, VDAC2 (Mus musculus, UniProt Q60930).
T1 construct: expressed in transfected cells; host or cells: vdac1 -/-, vdac3 -/- mouse fibroblasts; wt or vdac2 -/- MEFs; Bax, Bak doubly deficient MEFs (retrovirus pMIG)
T1 sequence (Q60930 1-295): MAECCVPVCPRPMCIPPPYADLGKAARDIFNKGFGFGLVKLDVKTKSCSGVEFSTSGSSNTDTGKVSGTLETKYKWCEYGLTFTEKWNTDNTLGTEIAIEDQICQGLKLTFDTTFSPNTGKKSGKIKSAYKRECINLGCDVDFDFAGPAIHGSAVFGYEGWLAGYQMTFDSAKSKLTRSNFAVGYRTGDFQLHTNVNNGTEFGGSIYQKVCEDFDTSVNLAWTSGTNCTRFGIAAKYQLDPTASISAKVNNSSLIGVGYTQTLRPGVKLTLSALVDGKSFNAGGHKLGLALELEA
The data set can be described thus: Anti-HA immunoprecipitation of HA-tagged VDAC2 with BH3-only molecules. The class given is binding. Conditions: mitochondria, anti-HA immunoprecipitation, 1% CHAPS (or 0.2% NP40). The source says: Murine vdac1, vdac2, N-terminal HA-tagged vdac2, N-terminal-HA tagged Bax or Bak, as well as wild type and mutant Bak (mBH1, W122A, G123E, R124A; mBH3, L75E) were cloned into the retroviral expression vector MSCV-IRES-GFP (pMIG). PcDNA3-tBID (wt and mutants) was described previously M. C. Wei et al., Genes Dev 14, 2060-71. (2000). Generation of amphotropic retroviruses and retroviral infection were described previously E. H. Cheng et al., Mol Cell 8, 705-11. (2001). Retroviral expression of each indicated protein was confirmed by immunoblot. […]
The strength of association between BIM-EL and VDAC2 was compared to the strength of the association, if any, between BIM-EL and BAK or BAX. Mitochondria isolated from Bax, Bak doubly deficient MEFs transduced with retrovirus expressing N-terminal HA-tagged BAX, BAK, or VDAC2 were solubilized in 1% CHAPS or 0.2% NP-40 buffer, followed by anti-HA immunoprecipitation. The immunoprecipitates were analyzed by an immunoblot developed with anti-BIM. […] These findings indicate that BH3-only competition for VDAC2 frees BAK, which, in the absence of its specific inhibitor VDAC2, is prone to auto-activating homo-oligomerization. […]

For data set [2], the target named is T2, N-terminal HA-tagged VDAC2 (murine, UniProt Q60930 1-295).
T2 construct: also called HA-VDAC2; hemagglutinin (HA)-tagged version of VDAC2; not shown: N-terminal HA tag
T2 sequence (looked up): T1 sequence (Q60930 1-295)
The data set can be described thus: anti-HA immunoprecipitation in 1% CHAPS from Bax, Bak doubly deficient MEF mitochondria before or after etoposide, anti-PUMA immunoblot (FIG. 11B). How it is done:
For FIG. 11A, mitochondria isolated from vdac1 -/-, vdac3 -/- mouse fibroblasts with or without retroviral transduction of N-terminal HA-tagged VDAC2 were incubated with in vitro transcribed, translated PUMA protein at 30° C. for 30 min, followed by anti-HA immunoprecipitation in 1% CHAPS buffer. The immunoprecipitates were analyzed by an immunoblot developed with anti-PUMA. For FIG. 11B, mitochondria were isolated from Bax, Bak doubly deficient MEFs with or without retroviral transduction of N-terminal HA-tagged VDAC2 before or after etoposide treatment (10 μM) for 20 hours, followed by anti-HA immunoprecipitation in 1% CHAPS buffer. The immunoprecipitates were analyzed by an immunoblot developed with anti-PUMA (FIG. 11B, lower panel).
(In general: Immunoblotting shows a protein as a band on a membrane.)

In data set [3] the target is T3, VDAC2 (endogenous, or untagged murine vdac2 re-expressed by retrovirus) (murine, UniProt Q60930 1-295).
T3 construct: In mitochondria or whole cells; also called Voltage-Dependent Anion Channel 2; protein X
T3 sequence (looked up): T1 sequence (Q60930 1-295)
The data set can be described thus: restatement of the co-immunoprecipitation result.

The next data set deals with VDAC1 (endogenous) (mouse, UniProt Q60932-2 2-283, limits assumed). The data set can be described thus: DSS crosslinking of vdac2-deficient ES cells, anti-BAK immunoblot.
Chain of VDAC1 (endogenous) (Q60932 15-296 limits assumed): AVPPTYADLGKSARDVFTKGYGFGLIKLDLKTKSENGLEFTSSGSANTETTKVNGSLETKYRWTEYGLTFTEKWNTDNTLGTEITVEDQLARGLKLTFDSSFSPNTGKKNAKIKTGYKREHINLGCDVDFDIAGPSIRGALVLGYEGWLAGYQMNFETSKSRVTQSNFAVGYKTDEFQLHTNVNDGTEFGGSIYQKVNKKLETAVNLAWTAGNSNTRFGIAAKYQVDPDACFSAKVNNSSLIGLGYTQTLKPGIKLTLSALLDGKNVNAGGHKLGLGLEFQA
Data set [4] deals with the molecule itself. The data set can be described thus: Superdex 200 gel filtration of mitochondrial lysates in 2% CHAPS, anti-BAK immunoblot. On the procedure:
The chromatographic step of Superdex 200 (HR 10/30, Amersham-Pharmacia) was performed on an automatic fast protein liquid chromatography (FPLC) station (Amersham-Pharmacia) at 4° C. The column was equilibrated with buffer containing 2% CHAPS, 300 mM NaCl, 0.2 mM DTT, and 25 mM Hepes, pH 7.5 and calibrated with thyroglobulin (669 kD, Amersham-Pharmacia), ferritin (440 kD, Amersham-Pharmacia), catalase (232 kD, Amersham-Pharmacia), aldolase (158 kD, Amersham-Pharmacia), bovine serum albumin (66 kD, Calbiochem), and cytochrome c (14 kD, Sigma). 200 μl of mitochondrial lysates (1 mg/ml protein in the same buffer as above) was loaded onto the column, eluted at a flow rate of 0.3 ml/minute. Fractions of 0.6 ml were collected, precipitated by trichloroacetic acid, and analyzed by an immunoblot (fractions 16-31) developed with an anti-BAK Ab.

The target in data set [5] is T3, VDAC2 (endogenous, or untagged murine …). The data set can be described thus: DSS crosslinking of reconstituted Bax, Bak doubly-deficient MEFs, anti-BAK immunoblot.
Data set [6] addresses T2, N-terminal HA-tagged VDAC2. The data set can be described thus: anti-HA immunoprecipitation in 1% CHAPS or 0.2% NP40, anti-BIM immunoblot. An excerpt: Mitochondria isolated from wild-type MEFs or vdac2 -/- mouse embryonic fibroblasts (MEFS) with retroviral transduction of N-terminal HA-tagged VDAC2 were solubilized in either 1% CHAPS or 0.2% NP40 buffer, followed by anti-HA immunoprecipitation.

The target of another data set is T4, BAK-X complex (Mus musculus, UniProt O08734+Q60930).
T4 construct: isolation of mitochondria (50 μg) from wild-type (wt) mouse embryonic fibroblasts (MEFs); endogenous in cells; host or cells: mitochondria from wt MEFs
T4 sequence (O08734 2-209 limits assumed): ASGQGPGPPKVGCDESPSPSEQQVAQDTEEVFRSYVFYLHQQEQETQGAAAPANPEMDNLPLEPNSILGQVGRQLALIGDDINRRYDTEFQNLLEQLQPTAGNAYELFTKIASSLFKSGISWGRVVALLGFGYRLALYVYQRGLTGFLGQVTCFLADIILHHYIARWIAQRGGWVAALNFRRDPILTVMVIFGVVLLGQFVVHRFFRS
T4 sequence (Q60930 1-295): T1 sequence (Q60930 1-295)
The data set can be described thus: DSS cross-linking of BAK-X complex in isolated mitochondria, anti-BAK immunoblot. The class given is biochemical. Conditions: liver mitochondria 50 μg, 5 μl in vitro transcribed-translated mutant tBID, 30° C. 30 min. On the procedure:
FIG. 1A is an illustration depicting isolation of mitochondria (50 μg) from wild-type (wt) mouse embryonic fibroblasts (MEFs). The isolated mitochondria were incubated with recombinant tBID protein (50 ng) at 30° C. for 30 min, followed by treatment with the cross-linkers disuccinimidyl suberate (DSS) (10 mM) or bismaleimidohexane (BMH) (10 mM) at room temperature for 30 minutes. Higher order BAK complexes were identified by immunoblot developed with an anti-BAK antibody.
FIG. 1C is an illustration depicting treatment of mitochondria (50 μg) isolated from mouse liver, Bal17, Jurkat, and FL5.12 cells with 50 ng tBID protein at 30° C. for 30 min, followed by DSS cross-linking. The BAK-X complex was detected by an immunoblot developed with anti-BAK antibody.
FIG. 1E is a photograph depicting isolated liver mitochondria (50 μg) which were incubated with 5 μl of in vitro transcribed-translated wt or mutant tBID at 30° C. for 30 min, followed by DSS cross-linking. The BAK-X complex was detected by an immunoblot developed with anti-BAK antibody. […]
Protein crosslinkers were used to search for a candidate protein that interacts with BAK at the mitochondria in viable cells. A ˜60 kD mobility-shifted complex immunoreactive with an antibody (Ab) to BAK was detected after treatment of purified mitochondria (FIG. 1A) or viable whole cells (FIG. 1B) with the crosslinker disuccinimidyl suberate (DSS). […]

Positions count from the first letter of the chain named. In names and notes the source's numbering stands.

Regarding `CN[C@@H]1[C@@H](O)[C@@H](O[C@@H]2[C@@H](O)[C@H](O[C@H]3O[C@H]([C@@H](C)O)[C@@H](O)[C@H](O)[C@H]3N)[C@@H](N)C[C@H]2N)OC[C@]1(C)O` [G418], in the data set on MEFs, the MEFs died is reported as 100%.

B1: N-terminal HA-tagged BAK (other, murine, UniProt O08734 1-209, looked up)
chain: MASGQGPGPPKVGCDESPSPSEQQVAQDTEEVFRSYVFYLHQQEQETQGAAAPANPEMDNLPLEPNSILGQVGRQLALIGDDINRRYDTEFQNLLEQLQPTAGNAYELFTKIASSLFKSGISWGRVVALLGFGYRLALYVYQRGLTGFLGQVTCFLADIILHHYIARWIAQRGGWVAALNFRRDPILTVMVIFGVVLLGQFVVHRFFRS
notes: also called HA-BAK; not shown: N-terminal HA tag
Turning to B1, the binding result in [1] was “no binding”.

B2: PUMA (endogenous, induced by etoposide) (other, mouse, UniProt Q99ML1 1-193, looked up)
chain: MARARQEGSSPEPVEGLARDSPRPFPLGRLMPSAVSCSLCEPGLPAAPAAPALLPAAYLCAPTAPPAVTAALGGPRWPGGHRSRPRGPRPDGPQPSLSPAQQHLESPVPSAPEALAGGPTQAAPGVRVEEEEWAREIGAQLRRMADDLNAQYERRRQEEQHRHRPSPWRVMYNLFMGLLPLPRDPGAPEMEPN
notes: also called induced PUMA
B2: the “interaction with HA-tagged VDAC2 (co-immunoprecipitation)” value in the data set with VDAC2 is listed as “stable interaction”. The binding result in data set [2] is given as “binds”.

B3: BAK (endogenous, or wild type Bak reconstituted by retrovirus) (other, murine, UniProt O08734 2-209, looked up)
chain: T4 sequence (O08734 2-209 limits assumed)
notes: Integral mitochondrial membrane protein, tested in mitochondria or whole cells; also called endogenous BAK; wt Bak
Turning to B3, the binding result in data set [3] is recorded as “binds”; in the data set with VDAC1 (endogenous) it was “no binding”; in data set [4], “binds”.

B4: mutant Bak mBH3 (L75E) (other, murine, UniProt O08734 2-209, looked up)
chain: T4 sequence (O08734 2-209 limits assumed) with L75E
notes: also called BAK mutated within the BH3 domain (L75E)
For the molecule B4, the binding result in [5] is reported as “no binding”.

B5: BIM-EL (endogenous) (other, mouse, UniProt O54918-1 1-196, looked up)
chain: MAKQPSDVSSECDREGGQLQPAERPPQLRPGAPTSLQTEPQGNPDGEGDRCPHGSPQGPLAPPASPGPFATRSPLFIFVRRSSLLSRSSSGYFSFDTDRSPAPMSCDKSTQTPSPPCQAFNHYLSAMASIRQSQEEPEDLRPEIRIAQELRRIGDEFNETYTRRVFANDYREAEDHPQMVILQLLRFIFRLVWRRH
notes: also called BH3-only molecule BIM-EL
In the case of B5, the binding result in data set [6] was “binds”.

B6: mutant tBID mIII.4 (G94E) (other, UniProt P70444 60-195, looked up)
chain: GSQASRSFNQGRIEPDSESQEEIIHNIARHLAQIEDEMDHNIQPTLVRQLAAQFMNGSLSEEDKRNCLAKALDEVKTAFPRDMENDKAMLIMTMLLAKKVASHAPSLLRDVFHTTVNFINQNLFSYVRNLVRNEMD
notes: domain: p15 tBID; also called m111.4 mutant; m l 11.4
Regarding B6, in the data set with BAK-X complex, the “dissociation of the BAK-X complex by mutant tBID” value is listed as “not”. The “interaction with HA-tagged VDAC2 (co-immunoprecipitation)” value with VDAC2 was “did not recognize VDAC2”.
